Source: the Human Domainome abundance scans (Beltran et al. 2025)
± gives the uncertainty stated by the source.

B1: Histidine--tRNA ligase, cytoplasmic, residues 8 to 45; numbered along this chain, P12081 (parent)
chain: EELVKLQGERVRGLKQQKASAELIEEEVAKLLKLKAQL
B2: Spectrin alpha chain, erythrocytic 1, residues 979 to 1036; numbered along this chain, P02549 (parent)
chain: EQRVMALYDFQARSPREVTMKKGDVLTLLSSINKDWWKVEAADHQGIVPAVYVRRLAH

Variants of: B1
Experiment: abundance fitness (aPCA) (normalised: wild type 0, dead -1); higher = more abundant; growth selection in yeast, the domain comes from the species named
Conditions: Homo sapiens

Variant	abundance fitness
EELVKFQGERVRGLKQQKASAELIEEEVAKLLKLKAQL	-0.102 ± 0.1
EELVKSQGERVRGLKQQKASAELIEEEVAKLLKLKAQL	-0.136 ± 0.076
EELVKAQGERVRGLKQQKASAELIEEEVAKLLKLKAQL	0.194 ± 0.071
EELVKEQGERVRGLKQQKASAELIEEEVAKLLKLKAQL	0.128 ± 0.12
EELVKIQGERVRGLKQQKASAELIEEEVAKLLKLKAQL	-0.428 ± 0.22
EELVKPQGERVRGLKQQKASAELIEEEVAKLLKLKAQL	-0.211 ± 0.1
EELVKCQGERVRGLKQQKASAELIEEEVAKLLKLKAQL	-0.436 ± 0.082
EELVKQQGERVRGLKQQKASAELIEEEVAKLLKLKAQL	0.213 ± 0.09
EELVKNQGERVRGLKQQKASAELIEEEVAKLLKLKAQL	-0.017 ± 0.1
EELVKHQGERVRGLKQQKASAELIEEEVAKLLKLKAQL	0.051 ± 0.099
EELVKKQGERVRGLKQQKASAELIEEEVAKLLKLKAQL	0.155 ± 0.12
EELVKRQGERVRGLKQQKASAELIEEEVAKLLKLKAQL	0.051 ± 0.098
EELVKYQGERVRGLKQQKASAELIEEEVAKLLKLKAQL	-0.261 ± 0.091
EELVKMQGERVRGLKQQKASAELIEEEVAKLLKLKAQL	0.1 ± 0.11
EELVKVQGERVRGLKQQKASAELIEEEVAKLLKLKAQL	0.054 ± 0.078
EELVLLQGERVRGLKQQKASAELIEEEVAKLLKLKAQL	-0.394 ± 0.071
EELVALQGERVRGLKQQKASAELIEEEVAKLLKLKAQL	-0.234 ± 0.085
EELVCLQGERVRGLKQQKASAELIEEEVAKLLKLKAQL	-0.531 ± 0.13
EELVPLQGERVRGLKQQKASAELIEEEVAKLLKLKAQL	-0.54 ± 0.078
EELVILQGERVRGLKQQKASAELIEEEVAKLLKLKAQL	-0.436 ± 0.099
EELVVLQGERVRGLKQQKASAELIEEEVAKLLKLKAQL	-0.611 ± 0.084
EELVQLQGERVRGLKQQKASAELIEEEVAKLLKLKAQL	-0.019 ± 0.099
EELVMLQGERVRGLKQQKASAELIEEEVAKLLKLKAQL	-0.143 ± 0.11

Variant	abundance fitness
EELVFLQGERVRGLKQQKASAELIEEEVAKLLKLKAQL	-0.443 ± 0.084
EELVGLQGERVRGLKQQKASAELIEEEVAKLLKLKAQL	-0.407 ± 0.07
EELVSLQGERVRGLKQQKASAELIEEEVAKLLKLKAQL	-0.531 ± 0.072
EELVWLQGERVRGLKQQKASAELIEEEVAKLLKLKAQL	-0.383 ± 0.13
EELVHLQGERVRGLKQQKASAELIEEEVAKLLKLKAQL	-0.223 ± 0.078
EELVRLQGERVRGLKQQKASAELIEEEVAKLLKLKAQL	-0.269 ± 0.088
EELVELQGERVRGLKQQKASAELIEEEVAKLLKLKAQL	-0.026 ± 0.1
EELVYLQGERVRGLKQQKASAELIEEEVAKLLKLKAQL	-0.27 ± 0.079
TELVKLQGERVRGLKQQKASAELIEEEVAKLLKLKAQL	-0.692 ± 0.11
DELVKLQGERVRGLKQQKASAELIEEEVAKLLKLKAQL	-0.377 ± 0.14
WELVKLQGERVRGLKQQKASAELIEEEVAKLLKLKAQL	-0.537 ± 0.17
LELVKLQGERVRGLKQQKASAELIEEEVAKLLKLKAQL	-0.687 ± 0.098
YELVKLQGERVRGLKQQKASAELIEEEVAKLLKLKAQL	-1.05 ± 0.24
VELVKLQGERVRGLKQQKASAELIEEEVAKLLKLKAQL	-0.661 ± 0.086
FELVKLQGERVRGLKQQKASAELIEEEVAKLLKLKAQL	-0.386 ± 0.24
SELVKLQGERVRGLKQQKASAELIEEEVAKLLKLKAQL	-0.737 ± 0.14
AELVKLQGERVRGLKQQKASAELIEEEVAKLLKLKAQL	-0.62 ± 0.12
MELVKLQGERVRGLKQQKASAELIEEEVAKLLKLKAQL	-0.139 ± 0.15
IELVKLQGERVRGLKQQKASAELIEEEVAKLLKLKAQL	-0.132 ± 0.16
HELVKLQGERVRGLKQQKASAELIEEEVAKLLKLKAQL	-1.02 ± 0.45
CELVKLQGERVRGLKQQKASAELIEEEVAKLLKLKAQL	-1.18 ± 0.46
KELVKLQGERVRGLKQQKASAELIEEEVAKLLKLKAQL	-0.165 ± 0.15
RELVKLQGERVRGLKQQKASAELIEEEVAKLLKLKAQL	-0.992 ± 0.2

Variants of: B2
Experiment: as above
Conditions: Homo sapiens

Variant	abundance fitness
EQRQMALYDFQARSPREVTMKKGDVLTLLSSINKDWWKVEAADHQGIVPAVYVRRLAH	-0.145 ± 0.18
EQRVMALYDFQARSPREVTMKKGDTLTLLSSINKDWWKVEAADHQGIVPAVYVRRLAH	-0.7 ± 0.5
EQRVMALYDFQARSPREVSMKKGDVLTLLSSINKDWWKVEAADHQGIVPAVYVRRLAH	0.249 ± 0.08
EQRVMALYDFQARSPREVTMKKGDVLTLLSSINKDWWKVEAADHQGWVPAVYVRRLAH	0.461 ± 0.15
EQRVMALYDFQARSPREVTMKKGDVLTLLSSINKDWWKVEAADHQGIVPAVYVPRLAH	-0.292 ± 0.49
EQRVMALYDFQARSPREVTMKKGDVLTLLSSINKDWWKVEAADHQGIVPAVYVRRSAH	-0.006 ± 0.21
EQRVMALYDFQARSPREVTMKKGDVLTLLSSINKDWWKVEAADHQGIVPAIYVRRLAH	0.201 ± 0.17
EQRVMALYDFQAQSPREVTMKKGDVLTLLSSINKDWWKVEAADHQGIVPAVYVRRLAH	-0.305 ± 0.088
EQRVMAGYDFQARSPREVTMKKGDVLTLLSSINKDWWKVEAADHQGIVPAVYVRRLAH	-0.559 ± 0.12
EQRVMAAYDFQARSPREVTMKKGDVLTLLSSINKDWWKVEAADHQGIVPAVYVRRLAH	-0.609 ± 0.12
EQRVMSLYDFQARSPREVTMKKGDVLTLLSSINKDWWKVEAADHQGIVPAVYVRRLAH	-0.496 ± 0.26
EQHVMALYDFQARSPREVTMKKGDVLTLLSSINKDWWKVEAADHQGIVPAVYVRRLAH	-0.408 ± 0.21
EQRVMALYDFQARSPREVTMKKGDVLTLLSSINKDWWKVEAADHQGIVGAVYVRRLAH	-0.44 ± 0.25
EQRVMALYDFQARSPREVTMKKGDVQTLLSSINKDWWKVEAADHQGIVPAVYVRRLAH	-0.429 ± 0.26
EQRVMALYDFAARSPREVTMKKGDVLTLLSSINKDWWKVEAADHQGIVPAVYVRRLAH	-0.37 ± 0.14
EQRVMALYDFQARSPREVTMKKGDVLTLLSSINKDWWKVEAQDHQGIVPAVYVRRLAH	-0.021 ± 0.077
